Test results taken from patent publication US20230295308A1, “ANTAGONISTIC BIPARATOPIC ANTIBODIES THAT SPECIFICALLY BIND FIBROBLAST GROWTH FACTOR RECEPTOR 2 AND METHODS OF USING SAME” (The Broad Institute, Inc., priority 2020, published 2023).
Entries after “also recorded” stand apart in the source; their conditions may differ.

How the values were obtained:
[1] = molecular target: FGFR2 on SNU-16 gastric cancer cell line with FGFR2 amplification (UniProt P21802); assay: FACS on SNU-16 cells, % cells with FITC+ against log antibody concentration; Kd printed in the legend box [cont.]
[2] = molecular target: FGFR2 on SNU-16 gastric cancer cell line with FGFR2 amplification (UniProt P21802); assay: FACS on SNU-16 cells, % No. of cells with FITC+ [cont.]
[3] = molecular target: FGFR2b alpha IIIb antigen (UniProt P21802); assay: SPR (Biacore), antibody immobilized, FGFR2b alpha IIIb in flow
[4] = molecular target: FGFR2 on SNU-16 gastric cancer cell line with FGFR2 amplification (UniProt P21802); assay: FACS on SNU-16 cells, % cells with FITC+ [cont.]
[5] = molecular target: FGFR2 on SNU-16 gastric cancer cell line with FGFR2 amplification (UniProt P21802); assay: row 'Kd (nM) (FACS)'; FACS on SNU-16 cells
[6] = molecular target: FGFR2b alpha IIIb antigen (UniProt P21802); assay: SPR (Biacore), antibody on chip, FGFR2b alpha IIIb antigen
[7] = system: NIH3T3 cells overexpressing FGFR2-BICC1 fusion; assay: NIH3T3 FGFR2-BICC1 cell confluency, Incucyte (FIGS. 19A-19E); type: cell-based; details: 60 hours, 0.013-1 μM
Description: FIGS. 19A-19E present graphs showing the ability of biparatopic antibodies to impact FGFR2-fusion driven cell growth in NIH3T3 cells molecularly engineered to overexpress FGFR2-BICC1 fusion. […] The nomenclature of the biparatopic antibodies is based on the designations and descriptions of the parental antibodies presented in FIG. 7B.
The impact of biparatopic antibodies on FGFR2-fusion driven cell growth was assessed in a cell-based assay using biparatopic antibodies that bind to the ECD of FGFR2 and generated as described supra (Example 4). As described herein, the biparatopic antibodies were added to cultures of cells (e.g., NIH3T3 cells or BaF3 cells) molecularly engineered to overexpress FGFR2 fusion.
For assays using NIH3T3 cells, (FIGS. 19A-19E), NIH3T3 cells overexpressing a FGFR2-BICC1 fusion construct were plated in 384 black well plates at a concentration of 1000 cells/well overnight. 6 parental antibodies and 13 biparatopic antibodies were added to each well in duplicates at various concentrations ranging from 1 μM to 0.013 μM (1 μM, 0.833 μM, 0.600 μM, 0.450 μM, 0.316 μM, 0.233 μM, 0.166 μM, 0.125 μM, 0.091 μM, 0.066 μM, 0.048 μM, 0.035 μM, 0.025 μM, 0.018 μM, and 0.013 μM). The cell confluency was measured using Incucyte at 60 hours post treatment, and the IC50 curves were generated using non-linear fit in PRISM 9 software.

15AA-Nterm FGFR2 = molecular target: T1, 15AA-Nterm FGFR2; assay: row 'Kd (nM) (patent)', value quoted from the source patent; method: Indirect ELISA-15AA-Nterm FGFR2
T1 peptide: RPSFSLVEDTTLEPE

FGFR2b alpha IIIb = FGFR2b alpha IIIb (Homo sapiens, UniProt P21802); assay: Surface Plasmon Resonance (SPR) binding; details: FGFR2b alpha IIIb antigen
Sequence of FGFR2b alpha IIIb (P21802 22-378 isoform P21802-3): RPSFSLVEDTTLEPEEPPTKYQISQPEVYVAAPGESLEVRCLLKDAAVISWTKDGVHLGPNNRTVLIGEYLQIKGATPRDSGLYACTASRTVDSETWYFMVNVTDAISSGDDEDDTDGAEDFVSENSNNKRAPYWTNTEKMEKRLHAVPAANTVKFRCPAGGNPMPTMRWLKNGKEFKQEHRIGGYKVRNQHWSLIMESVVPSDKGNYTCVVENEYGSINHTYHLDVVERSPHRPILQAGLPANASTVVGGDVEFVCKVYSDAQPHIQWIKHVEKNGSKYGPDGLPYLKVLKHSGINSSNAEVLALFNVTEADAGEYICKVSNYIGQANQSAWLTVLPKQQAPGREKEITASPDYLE
Text: FIGS. 17A-17C provide a schematic and tabular data related to assessments made to compare the avidity of biparatopic antibodies to that of their parental (bivalent monospecific) antibodies.
Surface Plasmon Resonance (SPR) as known in the art was used to determine the binding affinities of biparatopic antibodies. The SPR-based binding method involves immobilization of a ligand (antibody) on the surface of a sensor chip. The binding partner of interest or an analyte (FGFR2 ECD) flow through the flow channel. Different concentrations of an analyte flow over the ligand, and the interactions of ligand-analyte can be characterized. The SPR signal originates from changes in the refractive index of the […] at the surface of the sensor chip. The increase in mass associated with a binding event causes a proportional increase in the refractive index, which is observed as a change in response-resonance signal. In brief, for the experiments using the antibodies described herein, the SPR assay was carried out by immobilizing antibodies (used as […]) at a concentration ranging from 1-1000 nM and flow-through FGFR2b alpha IIIb antigen (used as […]). The antibody kinetic data for the interaction with FGFR2b alpha IIb antigen were fitted to the 2-state and 1-1 binding models using Biocore software. The mean and standard deviation KD values are derived from at least three independent runs.
Using SPR, the kinetics of 6 monospecific and 13 biparatopic antibodies for binding to a single antigen, FGFR2b alpha IIb, was measured so as to compare avidity of the biparatopic antibodies to their parental antibodies. Without wishing to be bound by theory, it was expected that the biparatopic antibodies would bind to the FGFR2 antigen more tightly than their parental antibodies and that the tighter binding biparatopic antibodies among the antibodies that were assessed would be more efficient in blocking FGFR2 dimerization (FIG. 17A), thereby leading to inhibition or blocking of constitutive FGFR2 signaling and/or oncogenic transformation. […]

[8] = system: FGFR2-PHDGH fusion expressing BaF3 cells; assay: growth of BaF3 cells expressing FGFR2-PHGDH fusion, absence of FGF ligands (FIG. 9); type: cell-based; details: BaF3 FGFR2-PHGDH fusion
Description: Antibodies A-F were tested to determine whether they could inhibit the ligand-induced growth of BaF3 cells expressing FGFR2IIIb. Antibodies C, D, and E, which bind FGFR2 Ig-2 and Ig-3, were effective in blocking ligand-induced growth of BaF3 cells expressing wild-type FGFR2IIIb (FIG. 8). The effects of antibodies A-F were then tested on BaF3 cells expressing FGFR2-PHDGH fusions. […] Antibody F inhibited the FGFR2-PHDGH activating fusion in BaF3 cells (FIG. 9).

[9] = molecular target: FGFR2b alpha IIIb antigen (UniProt P21802); assay: SPR (Biacore), KD matrix by the two arms; unit M from FIG. 17B and paragraph 180

B1: 10164 (antibody, V domains shown)
VH: QVQLVESGGGLVKPGGSLRLSCAASGFTFSSYALSWVRQAPGKGLEWVGRIRSKIDGGTTDYAAPVKGRFTISRDDSKNTLYLQMNSLKTEDTAVYYCARDRSPSDSSAFAIWGQGTLVTVSS
VL: DIELTQPPSVSVSPGQTASITCSGDNLGSQYVDWYQQKPGQAPVLVIYDDNDRPSGIPERFSGSNSGNTATLTISGTQAEDEADYYCQSWDSLSVVFGGGTKLTVLG
notes: the duobody scheme implies IgG1 with K409R or F405L; also called Antibody C; N10164
- Kd [1]: 0.13 nM
- EC50 (read off the curve) [2]: 0.02 µg/mL
- Binding Stoichiometry [3]: 1.9
- EC50 (read off the curve) [4]: 0.02 µg/mL
- Kd [5]: 0.13 nM
- Kd [6]: 1.7 nM

B2: GE/N10: biparatopic antibody combining parental antibodies GE (Antibody D) and N10 (Antibody C) (antibody, V domains shown)
VH 1: EVQLVESGGGLVQPGGSLRLSCAASGFPFTSTGISWVRQAPGKGLEWVGRTHLGDGSTNYADSVKGRFTISADTSKNTAYLQMNSLRAEDTAVYYCARTYGIYDTYDMYTEYVMDYWGQGTLVTVSS
VL 1: DIQMTQSPSSLSASVGDRVTITCRASQDVDTSLAWYKQKPGKAPKLLIYSASFLYSGVPSRFSGSGSGTDFTLTISSLQPEDFATYYCQQSTGHPQTFGQGTKVEIK
VH 2: B1 VH
VL 2: B1 VL
- inhibition of growth of NIH3T3 cells overexpressing FGFR2-BICC1 compared to parental antibodies [7]: more efficient and potent; also recorded: more effective and potent

B3: M048-D01 (antibody, V domains shown)
VH: EVQLLESGGGLVQPGGSLRLSCAASGFTFSSYAMSWVRQAPGKGLEWVSAISGSGTSTYYADSVKGRFTISRDNSKNTLYLQMNSLRAEDTAVYYCARVRYNWNHGDWFDPWGQGTLVTVSS
VL: QSVLTQPPSASGTPGQRVTISCSGSSSNIGNNYVSWYQQLPGTAPKLLIYENYNRPAGVPDRFSGSKSGTSASLAISGLRSEDEADYYCSSWDDSLNYWVFGGGTKLTVLG
notes: Parental bivalent monospecific antibody; also called Antibody A; Bayer
- Kd [1]: 30.7 nM
- Kd (15AA-Nterm FGFR2): 105 nM
- EC50 (read off the curve) [2]: 4 µg/mL
- Binding Stoichiometry [3]: 1.7
- EC50 (read off the curve) [4]: 0.1 µg/mL
- Kd (FGFR2b alpha IIIb): 16 nM
- Kd [5]: 30.7 nM
- Kd [6]: 16 nM
- agonist activity in the absence of FGF ligands [8]: agonist activity

B4: Biparatopic antibody B/GE (bispecific antibody, V domains shown)
VH 1: B3 VH
VL 1: B3 VL
VH 2: B2 VH 1
VL 2: B2 VL 1
- Binding Stoichiometry [3]: 1.3
- Kd [3]: 0.37 nM
- Kd [9]: 0.37 nM
- inhibition of growth of NIH3T3 cells overexpressing FGFR2-BICC1 compared to parental antibodies [7]: more efficient and potent; also recorded: more effective and potent

B5: FGFR_GA/GE_FL (bispecific antibody, part only; not given: Constant regions with duobody mutation, part only)
heavy chain, GA arm, part: QVQLVQSGAEVKKPGSSVKVSCKASGYIFTTYNVHWVRQAPGQGLEWIGSIYPDNGDTSYNQNFKGRATITADKSTSTAYMELSSLRSEDTAVYYCARGDFAYWGQGTLVTVSS
light chain, GA arm: DIQMTQSPSSLSASVGDRVTITCKASQGVSNDYAWYQQKPGKAPKLLIYSASYRYTGVPSRFSGSGSGTDFTFTISSLQPEDIATYYCQQHSTTPYTFGQGTKLEIK
heavy chain, GE arm, part: B2 VH 1
light chain, GE arm: B2 VL 1
- Binding Stoichiometry [3]: 1.2
- Kd [3]: 0.87 nM
- Kd [9]: 0.87 nM

B6: Biparatopic antibody GE/N12 (bispecific antibody, V domains shown)
VH 1: B2 VH 1
VL 1: B2 VL 1
VH 2: QVQLVQSGAEVKKPGESLKISCKGSGYSFTNYYIHWVRQMPGKGLEWMGAIYPDNSDTTYSPSFQGQVTISADKSISTAYLQWSSLKASDTAMYYCARGADIWGQGTLVTVSS
VL 2: DIQMTQSPSSLSASVGDRVTITCRASQDIDPYLSNWYQQKPGKAPKLLIYDASNLQSGVPSRFSGSGSGTDFTLTISSLQPEDFATYYCQQTTSHPYTFGQGTKVEIK
- Binding Stoichiometry [3]: 1.3
- Kd [3]: 0.42 nM
- Kd [9]: 0.42 nM
- inhibition of growth of NIH3T3 cells overexpressing FGFR2-BICC1 compared to parental antibodies [7]: more efficient and potent; also recorded: more effective and potent
